Data: patent US20050208041A1 (Bristol-Myers Squibb, published 2005)
Positions count from the first letter of the chain named.

T1: purified recombinant IFNAR-1 extracellular fragment (human, UniProt P17181 28-436)
T1 construct: extracellular domain; also called soluble IFNAR-1; soluble IFNAR
T1 sequence (looked up): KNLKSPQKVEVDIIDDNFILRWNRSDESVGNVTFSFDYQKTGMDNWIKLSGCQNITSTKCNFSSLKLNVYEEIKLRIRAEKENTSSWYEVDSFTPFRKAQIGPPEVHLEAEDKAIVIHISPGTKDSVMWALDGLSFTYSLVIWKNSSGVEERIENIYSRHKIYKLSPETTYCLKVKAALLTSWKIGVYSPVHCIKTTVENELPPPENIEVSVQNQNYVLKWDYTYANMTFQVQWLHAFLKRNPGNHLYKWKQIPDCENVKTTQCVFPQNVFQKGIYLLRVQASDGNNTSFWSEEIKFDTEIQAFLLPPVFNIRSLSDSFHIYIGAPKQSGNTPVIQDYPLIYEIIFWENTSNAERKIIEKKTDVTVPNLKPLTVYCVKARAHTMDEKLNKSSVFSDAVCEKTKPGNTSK

B1: M3-4 (X = L) heavy chain with K1 light chain (antibody, V domains shown)
VH: EVQLLESGGGLVQPGGSLRLSCAFSGFTLSTSGMGIGWVRQAPGKGLEWVAHIWWDDDKYYNPSLKSRFTISRDTSKNTVYLQMNSLRAEDTAVYYCARNYYLYDAWFDYWGQGTLVTVS
VL: DIQMTQSPSSLSASVGDRVTITCSASSSINSNHLHWYQQKPGKAPKLLIYRTSILASGVPSRFSGSGSGTSFTLTISSLQPEDFATYYCQQGSNIPFTFGQGTKVEIK
notes: the position is counted within CDR3, not on the entry; also called M3-4 L
B2: M3-4 (X = H) heavy chain with K1 light chain (antibody, V domains shown)
VH: B1 VH with L103H
VL: B1 VL
notes: Position counted within VH CDR3; also called M3-4 H
B3: M3-4 (X = A) heavy chain with K1 light chain (antibody, V domains shown)
VH: B1 VH with L103A
VL: B1 VL
notes: Position counted within VH CDR3; also called M3-4 A
B4: M3-4 (X = E) heavy chain with K1 light chain (antibody, V domains shown)
VH: B1 VH with L103E
VL: B1 VL
notes: Position counted within VH CDR3; also called M3-4 E
B5: M3-4 (X = S) heavy chain with K1 light chain (antibody, V domains shown)
VH: B1 VH with L103S
VL: B1 VL
notes: Position counted within VH CDR3; also called M3-4 S
B6: M3-4 (X = I) heavy chain with K1 light chain (antibody, V domains shown)
VH: B1 VH with L103I
VL: B1 VL
notes: Position counted within VH CDR3; also called M3-4 I
B7: M3-4 (X = V) heavy chain with K1 light chain (antibody, V domains shown)
VH: B1 VH with L103V
VL: B1 VL
notes: Position counted within VH CDR3; also called M3-4 V
B8: M3-4 (X = K) heavy chain with K1 light chain (antibody, V domains shown)
VH: B1 VH with L103K
VL: B1 VL
notes: Position counted within VH CDR3; also called M3-4 K
B9: M3-4 (X = M) heavy chain with K1 light chain (antibody, V domains shown)
VH: B1 VH with L103M
VL: B1 VL
notes: Position counted within VH CDR3; also called M3-4 M
B10: M3-4 (X = T) heavy chain with K1 light chain (antibody, V domains shown)
VH: B1 VH with L103T
VL: B1 VL
notes: Position counted within VH CDR3; also called M3-4 T
B11: M3-4 (X = G) heavy chain with K1 light chain (antibody, V domains shown)
VH: B1 VH with L103G
VL: B1 VL
notes: Position counted within VH CDR3; also called M3-4 G
B12: M3-4 (X = R) heavy chain with K1 light chain (antibody, V domains shown)
VH: B1 VH with L103R
VL: B1 VL
notes: Position counted within VH CDR3; also called M3-4 R
B13: M3-4 (X = N) heavy chain with K1 light chain (antibody, V domains shown)
VH: B1 VH with L103N
VL: B1 VL
notes: Position counted within VH CDR3; also called M3-4 N
B14: M3-4 (X = W) heavy chain with K1 light chain (antibody, V domains shown)
VH: B1 VH with L103W
VL: B1 VL
notes: Position counted within VH CDR3; also called M3-4 W
B15: M3-4 (X = C) heavy chain with K1 light chain (antibody, V domains shown)
VH: B1 VH with L103C
VL: B1 VL
notes: Position counted within VH CDR3; also called M3-4 C
B16: M3-4 (X = D) heavy chain with K1 light chain (antibody, V domains shown)
VH: B1 VH with L103D
VL: B1 VL
notes: Position counted within VH CDR3; also called M3-4 D
B17: M3-11 (X = I) heavy chain with K1 light chain (antibody, V domains shown)
VH: B1 VH with L103P, Y110I
VL: B1 VL
notes: Position counted within VH CDR3; also called M3-11 I
B18: M3-11 (X = F) heavy chain with K1 light chain (antibody, V domains shown)
VH: B1 VH with L103P, Y110F
VL: B1 VL
notes: Position counted within VH CDR3; also called M3-11 F
B19: M3-11 (X = D) heavy chain with K1 light chain (antibody, V domains shown)
VH: B1 VH with L103P, Y110D
VL: B1 VL
notes: Position counted within VH CDR3; also called M3-11 D
B20: M3-11 (X = G) heavy chain with K1 light chain (antibody, V domains shown)
VH: B1 VH with L103P, Y110G
VL: B1 VL
notes: Position counted within VH CDR3; also called M3-11 G
B21: M3-11 (X = H) heavy chain with K1 light chain (antibody, V domains shown)
VH: B1 VH with L103P, Y110H
VL: B1 VL
notes: Position counted within VH CDR3; also called M3-11 H
B22: M3-11 (X = Q) heavy chain with K1 light chain (antibody, V domains shown)
VH: B1 VH with L103P, Y110Q
VL: B1 VL
notes: Position counted within VH CDR3; also called M3-11 Q
B23: M3-11 (X = L) heavy chain with K1 light chain (antibody, V domains shown)
VH: B1 VH with L103P, Y110L
VL: B1 VL
notes: the position is counted within CDR3, not on the entry; also called M3-11 L
B24: M3-11 (X = K) heavy chain with K1 light chain (antibody, V domains shown)
VH: B1 VH with L103P, Y110K
VL: B1 VL
notes: Position counted within VH CDR3; also called M3-11 K
B25: M3-11 (X = E) heavy chain with K1 light chain (antibody, V domains shown)
VH: B1 VH with L103P, Y110E
VL: B1 VL
notes: Position counted within VH CDR3; also called M3-11 E
B26: M3-11 (X = S) heavy chain with K1 light chain (antibody, V domains shown)
VH: B1 VH with L103P, Y110S
VL: B1 VL
notes: Position counted within VH CDR3; also called M3-11 S
B27: M3-11 (X = C) heavy chain with K1 light chain (antibody, V domains shown)
VH: B1 VH with L103P, Y110C
VL: B1 VL
notes: Position counted within VH CDR3; also called M3-11 C
B28: M3-11 (X = A) heavy chain with K1 light chain (antibody, V domains shown)
VH: B1 VH with L103P, Y110A
VL: B1 VL
notes: Position counted within VH CDR3; also called M3-11 A
B29: M3-11 (X = R) heavy chain with K1 light chain (antibody, V domains shown)
VH: B1 VH with L103P, Y110R
VL: B1 VL
notes: Position counted within VH CDR3; also called M3-11 R
B30: M3 heavy chain with K1-CD light chain (antibody, human IgG4, V domains shown)
VH: B1 VH with L103P
VL: DIQMTQSPSSLSASVGDRVTITCSASTSINSNHLNWYQQKPGKAPKLLIYRTSILASGVPSRFSGSGSGTSFTLTISSLQPEDFATYYCQQGSNIPFTFGQGTKVEIKR
notes: also called M3 K1-C/D
B31: M3 heavy chain with K1-CDE light chain (antibody, human IgG4, V domains shown)
VH: B1 VH with L103P
VL: B30 VL with G92T
notes: also called M3 K1-C/D/E
B32: M3 heavy chain with K1-E light chain (antibody, human IgG4, V domains shown)
VH: B1 VH with L103P
VL: B30 VL with T27S, N35H, G92T
notes: also called M3 K1-E
B33: M3-AB heavy chain with K1 light chain (antibody, human IgG4, V domains shown)
VH: B1 VH with M34A, S67A, L103P
VL: B30 VL with T27S, N35H
notes: also called M3-A/B K1
B34: M3-A heavy chain with K1 light chain (antibody, human IgG4, V domains shown)
VH: B1 VH with M34A, L103P
VL: B30 VL with T27S, N35H
notes: also called M3-A K1
B35: M3-AB heavy chain with K1-CD light chain (antibody, human IgG4, V domains shown)
VH: B1 VH with M34A, S67A, L103P
VL: B30 VL
notes: also called M3-A/B K1-C/D
B36: M3 heavy chain with K1-DE light chain (antibody, human IgG4, V domains shown)
VH: B1 VH with L103P
VL: B30 VL with T27S, G92T
notes: also called M3 K1-D/E
B37: M3 heavy chain with K1-D light chain (antibody, human IgG4, V domains shown)
VH: B1 VH with L103P
VL: B30 VL with T27S
notes: also called M3 K1-D

What follows are binders tested against T1, purified recombinant IFNAR-1 … (assay: Biacore, maximal association on IFNAR-1 relative to M3K1).
Text: (§1) Pools 4 and 11 were selected for further study and the individual antibodies in each pool were produced and expressed separately. The sequences of these individual antibodies were as shown in SEQ ID NO:12 of FIG. 1F and SEQ ID NO: 13 of FIG. 1G. The data is presented as maximal association relative to M3K1. […]

% activity relative to M3K1	Binder
126%	B1
79%	B2
107%	B3
128%	B4
110%	B5
106%	B6
122%	B7
86%	B8
101%	B9
103%	B10
114%	B11
106%	B12
49%	B13
93%	B14
123%	B15
100%	B16

Molecular target: T1, purified recombinant IFNAR-1 …
Assay: as above
Remark: another data set of the same source
Text: as §1

% activity relative to M3K1	Binder
81%	B17
93%	B18
67%	B19
63%	B20
104%	B21
73%	B22
75%	B23
82%	B24
105%	B25
39%	B26
64%	B27
93%	B28
220%	B29

The binders below were run against T1, purified recombinant IFNAR-1 … (assay: Biacore, response on IFNAR-1 (flow cell 2) divided by response on anti-human IgG Fc (flow cell 4)).
Text: A series of antibodies were constructed with reduced numbers of potential T-cell epitopes. These included heavy chain variants M3-A and M3-B in which residues were changed in CDR regions and DI M3 in which framework residues were altered. De-immunized light chains were also constructed termed K1-C, K1-D, K1-E and DI K1. The antibodies were expressed and purified before analysis by Biacore. A Biacore chip was used with IFNAR-1 coated on Flow cell 2 at 690 RU and anti-human IgG Fc on flow cell 4 at 5000 RU. Binding of the antibody to IFNAR-1 relative to anti-human IgG Fc was determined by the ratio of response at flow cell 2 divided by flow cell 4 (Fc2/Fc4).

% activity relative to H3K1	Fc2/Fc4	Binder
57%	0.17	B30
	-0.1	B31
	-0.05	B32
43%	0.13	B33
17%	0.05	B34
23%	0.07	B35
	-0.1	B36
30%	0.09	B37
